Laboratory results as given in the supplement of paper PMC9732359.
± gives the uncertainty stated by the source.

Experiment: protein stability index of a GFP-peptide fusion (yeast GPS) (PSI 1-4); higher = more stable; sorted into four equal gates, so the index is relative within each strain
How it was run: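 Plasmids in a pooled yeast library fused tiled 17-residue yeast protein peptides downstream of GFP and also expressed Cherry. Mid-log cultures grown without leucine were sorted into four equal gates by GFP/Cherry fluorescence ratio. Each gate's plasmids were PCR-amplified and Illumina-sequenced, and reads were matched to strains by barcodes. The protein stability index is derived by multiplying each gate's read frequency by its gate number and summing the results.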

| Sequence | protein stability index (doa10∆) | protein stability index (pdr5∆) | protein stability index (san1∆) | protein stability index (ubr1∆) |
| --- | --- | --- | --- | --- |
| YLSDLKQFFQMTPLLVN [PCI8] | 1.69 ± 0.043 | 1.74 ± 0.044 | 1.51 ± 0.066 | 1.51 ± 0.026 |
| LLMSCPRLSHLSLTAVP [GRR1] | 1.9 ± 0.051 | 1.57 ± 0.054 | 1.63 ± 0.12 | 2.19 ± 0.059 |
| LGKLQDVFNLLPNLGTP [RPN8] | 3.06 ± 0.12 | 3.29 ± 0.089 | 2.43 ± 0.085 | 2.82 ± 0.081 |
| QAESMKFKLLNGLAIRR [RPS3] | 1.69 ± 0.069 | 2.3 ± 0.085 | 1.48 ± 0.12 | 2.58 ± 0.1 |
| DDVLQTIITDCAFLLTK [YJL039C/NUP192] | 1.76 ± 0.057 | 2.08 ± 0.062 | 1.79 ± 0.098 | 2.34 ± 0.047 |
| TNAPLRTLNIQPEVAVK [YIL149C/MLP2] | 2.08 ± 0.051 | 2.03 ± 0.048 | 1.65 ± 0.096 | 2.23 ± 0.042 |
| PFPQYPAGMNETPKSNN [ITC1] | 2.7 ± 0.1 | 2.8 ± 0.14 | 2.75 ± 0.087 | 3.01 ± 0.089 |
| QQQTSTFNSKPVRTIVP [SIR4] | 2.38 ± 0.032 | 2.77 ± 0.036 | 2.6 ± 0.039 | 2.58 ± 0.028 |
| LDNFETKTEALLSDVVS [YJL041W/NSP1] | 2.4 ± 0.054 | 2.72 ± 0.069 | 2.35 ± 0.063 | 2.12 ± 0.059 |
| FQIIDTLLPGLQDEVMN [RPS2] | 2.32 ± 0.082 | 1.72 ± 0.059 | 2.22 ± 0.091 | 2.09 ± 0.05 |
| LKNIMKVSDPYVPTRNT [RPN4] | 3.07 ± 0.15 | 2.67 ± 0.18 | 2.78 ± 0.071 | 2.59 ± 0.11 |
| KEEQPKQIIVTRKAMLD [PRP8] | 2.62 ± 0.078 | 3.09 ± 0.082 | 2.71 ± 0.068 | 2.61 ± 0.049 |
| FHESGSQYSTMVNIGLH [RGR1] | 3.19 ± 0.12 | 3.19 ± 0.11 | 2.7 ± 0.18 | 3.27 ± 0.14 |
| VAIGLNGKIWVKCEELS [RRP40] | 1.58 ± 0.2 | 2.25 ± 0.24 | 2.94 ± 0.16 | 1.73 ± 0.1 |
| PIQSKVFHAAFEGDSNM [BRR2] | 2.91 ± 0.055 | 3.02 ± 0.051 | 2.92 ± 0.063 | 2.9 ± 0.032 |
| VTVSIKSRIVKVVGPRG [RPL9A] | 2.08 ± 0.051 | 2.63 ± 0.048 | 2.47 ± 0.052 | 2.75 ± 0.032 |
| VEDFLERRLQTQVYKLG [RPS9A] | 1.28 ± 0.071 | 1.45 ± 0.095 | 1.97 ± 0.27 | 1.93 ± 0.18 |
| YQTCKNSEYLKRRVTNL [SMC2] | 2.37 ± 0.071 | 2.09 ± 0.079 | 2.44 ± 0.078 | 2.45 ± 0.073 |
| SSIHAIGSIKEDYLGAI [RPB7] | 2.61 ± 0.076 | 2.74 ± 0.064 | 2.71 ± 0.067 | 3.01 ± 0.095 |
| LAKLVSTIDANFADKYD [RPL8A] | 2.41 ± 0.14 | 2.8 ± 0.14 | 2.8 ± 0.12 | 1.89 ± 0.069 |

| Sequence | protein stability index (doa10∆) | protein stability index (pdr5∆) | protein stability index (san1∆) | protein stability index (ubr1∆) |
| --- | --- | --- | --- | --- |
| FNIIREFRSAAGQLALD [YDL116W/NUP84] | 2.92 ± 0.12 | 3.16 ± 0.12 | 2.94 ± 0.076 | 3.25 ± 0.087 |
| HLSTYLKVYKVGDIVDI [RPL21A] | 1.22 ± 0.075 | 1.49 ± 0.061 | 1.24 ± 0.16 | 1.16 ± 0.065 |
| LKNSIMSFIFPSYAERQ [YML031W/NDC1] | 2.51 ± 0.075 | 2.54 ± 0.083 | 2.38 ± 0.079 | 2.4 ± 0.067 |
| QKIVVVRAEELNISGEF [RPL16A] | 3.64 ± 0.2 | 3.06 ± 0.21 | 3.17 ± 0.16 | 3.28 ± 0.19 |
| LEFSIYHRLSNKDMIKN [CSN12] | 2.36 ± 0.096 | 2.91 ± 0.13 | 2.36 ± 0.18 | 2.79 ± 0.15 |
| KEKVEEQEQQQQQIIKI [RPS20] | 3.16 ± 0.076 | 3.38 ± 0.11 | 3.19 ± 0.066 | 3.24 ± 0.091 |
| RAHRIGQKNEVRILRLI [SNF2] | 2.26 ± 0.048 | 1.79 ± 0.051 | 2.03 ± 0.058 | 2.23 ± 0.044 |
| KKTCSSCGYPSAKTRSH [RPL37B] | 2.74 ± 0.066 | 2.51 ± 0.044 | 2.63 ± 0.084 | 1.99 ± 0.04 |
| NDKQGFPMKQGVLLPTR [RPS6A] | 2.75 ± 0.098 | 3.06 ± 0.14 | 2.79 ± 0.075 | 2.57 ± 0.12 |
| ISQSQLGKFKNIIASPL [SIN4] | 1.73 ± 0.067 | 1.96 ± 0.049 | 2.01 ± 0.088 | 2.08 ± 0.057 |
| RYNVEKVKRLMDFLEED [NSL1] | 2.08 ± 0.098 | 1.26 ± 0.16 |  | 2.25 ± 0.19 |
| LLYADSLTAEAMTAAEH [CYT1] | 2.34 ± 0.056 | 2.67 ± 0.054 | 2.78 ± 0.057 | 2.58 ± 0.041 |
| KKLKAVRIIKHTLDIIN [RPS5] | 2 ± 0.066 | 2.01 ± 0.048 | 1.91 ± 0.057 | 2.36 ± 0.051 |
| AHTAGRYANKRFRKAQC [RPS5] | 2.29 ± 0.22 | 2.92 ± 0.18 |  |  |
| SLPEFFTNRIPSKTPEV [SWI3] | 2.56 ± 0.066 | 2.53 ± 0.054 | 2.65 ± 0.062 | 2.66 ± 0.059 |
| LYAIKKVTLNKETQQYE [BRR2] | 3.03 ± 0.15 | 3.21 ± 0.13 | 2.99 ± 0.094 | 3.36 ± 0.081 |
| RFQDPYVAIVVDPLKSL [RRI1] |  | 2.79 ± 0.13 | 2.26 ± 0.2 | 2.69 ± 0.13 |
| QLKRWYWQFNGVIALGQ [RMP1] |  |  |  | 1.41 ± 0.22 |
| DPDNTSFSDENSDDFFM [ESC2] | 2.31 ± 0.13 | 2.39 ± 0.11 | 2.54 ± 0.09 | 1.5 ± 0.088 |
| PRLDDVVVDTVECAQHC [SMC4] | 3.22 ± 0.1 | 3.31 ± 0.13 | 3.17 ± 0.092 | 2.75 ± 0.13 |
